Test results taken from the nanobody polyreactivity screen of Harvey et al. (2022).

Assay: yeast display, Sf9 membrane polyspecificity reagent, FACS + sequencing; frameworks hold sequencing errors
How it was run: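 Polyreactivity labels are assigned by the sorting gate from which each nanobody was recovered. The gates were low and high (top ~1%), set on anti-HA fluorescence for expression and streptavidin fluorescence for reagent binding. Before sorting, galactose-induced (36–48 hours) yeast display cells were stained for 1 hour at 4 °C with 10% biotinylated, detergent-solubilized Sf9 membrane reagent.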

Row | Sequence | polyreactivity (PSR sort gate)
1 | QVQRVESGGGLVQAGGSLRLSCAASGYTSQVKDMGWYRQAPGKERELVAAISSTGDRTYYADSVKGRFTISRDNAKNTVYLQMNSLKPEDTAVYYCNADLTSYYEEDERNDDDYWGQGTQVTVSS | low polyreactivity
2 | QVQLVESGGGLVQAGGSLRLSCAASGSIFYYYAMGWYRQAPGKERELVAAITSGGRTKYADSVKGRFTISRDNAKNTVYLQMNSLKPEDTAVYYCATRAIWAYSTGYDYWGQGTQVTVSS | high polyreactivity
3 | QVQLVESGGGLVQAGGTLRLSCAASGFTFGYYAMGWYRPAPGKERELVAAISSRGGTTYYADSVKGRFTISRDNAKNTVYLQMNSLKPEDTAVYYCAKDSFRNIYNYWGQGTQVTVSS | high polyreactivity
4 | QVQLVESGGGLVQAGGSLRLSCAASGSILGANVMGWYRQAPGKERELVASISKSGGNTFYADSVKGRFTISRDNAKNTVYLQMNSLKPEDTAVYYCAKDVLGGQITDGVGNDYWGQGTQVTVSS | low polyreactivity
5 | QVQLEESGGGLVQAGGSLRLSCAASGIIFWYYAMGWSRQAPGKERELVAAINSGDSTNYADSVKGRYTISRDNAKNTVYLQMNSLKPEDTAVYYCATVSSYTGGYWGQGTQVTVSS | low polyreactivity
6 | QVQLVESGGGLVQAGGSLRLSCAASGSTFEYNAKGWYRQAPGKERELVASSTNYADSVKGRFTISRDNAKNTVYFQMNSLKPEDTAVYYCAARSLRYPYDYWGQGTQVTVSS | low polyreactivity
7 | QVQHVESGGGLVQAGGSLRLSCAASGRTFYRYAMGWSRQAPGKERELVASINRGGSTNYADSVKGRFTISRDNAKNTVYLQMNSLKPEDTAVYYCNADGYQAASRVYRRPKRYYSWGQGTQVTVSS | low polyreactivity
8 | QVQLVESGGGLVQAGVSLRLSCAASGLTFPGYAMGWYRQATGKQRELVAAISRRGGSTYYADSVKGRFTISRDNEKNTVYLKMNSLKTEDTAVYYCNAVIRRYFVPSSYDYWGQGTQVTVSS | high polyreactivity
9 | QVQLVESGGGLVQAGGSLRLSCAASGLTFKYYAMGWYRQATGKERELVARISRGGNTNYADSVKGRFTISRDNAKNTVYLQMNSLKPEDTAVYYCAATVRVYDYWGQGTQVTVSS | high polyreactivity
10 | QVQLVESGGGLVQAGGSLRLSCAASGSIFYTNAMGWYRQAPGKERELVAAIRWSGGRTYYADSVKGRFTISRDNAKNTVFLQMNSLKPEDTAVYYCNVVVRYQSAYDYWGQGTQVTVSS | high polyreactivity
11 | QVQLVESGGGLVQAGGSLRLSCAASGFIFRYYSMAWYRQAPGKERELVAAISGSGGGTYYADSVKGRFTISRDYAKNTVYLQMNSLKPEDTAVYYCNARKVYSRRYKYDYWGQGSQVTVSS | high polyreactivity
12 | QVQLVESGGGLVQAGGSLRLSCAASGFTFYGYAMGWYRQAPGKERELVASISWSGGTTYYADSVKGRFTISRDNAKNTVYLQMNSLKPEDTAVYYCNAVRYRYGVFPYYYWGQGTQVTVSS | high polyreactivity
13 | QVQLVESGGGLVQAGGSLRISCAASGFICPQNTMGWYRQAPGTERELVAAITSCGSTYYADSVKGRFTISRDNGKNTVYLQMNSLKPEDTAVYYCAARPYGNWTYGYWGQGTQVTVSS | low polyreactivity
14 | QVHLVESGGGLVQAGGSLRLSCAASGRIFVFNAMGWYRQAPGKERELVAAINYRGGTYYADSVKGRFTISRDNAKNTVYLQMNSLKPEDTAVYYCNALRQKFQYHDNDYWGQGTQVTVSS | high polyreactivity
15 | QVQLVESGGGLVHAGGSLRLSCAASGFTLRKYVMGWYRQAPGKERELVAAITSYASSTYFADSVKGRFTISRDNSKNTVYLQMNSLKPEDSAVYYCAARRYGEPYGYWGQGTQVTVSS | high polyreactivity
16 | QVQLVESGGGLVQAGGSLRLSCAASGRTFRSYDMGWYRQAPGKERELVAAISKRGGNTYYADSVKGRFTISRDNAKNTVYLQMNSLKPEDTAVYYCAKRVSGSPPTAGSLSDSWGQGTQVTVSS | high polyreactivity
17 | QVQHVESRGGLVQAGGSLRLSCAASGRSFSDYAMGGYRQAAGKERELVASINSGGSTYYADSVKGRFTISRDKAKNTVYLHMNSLKPEDTAVYYCAAGFQLVKGSLSGRAAYYYWGQGTQVTVSS | high polyreactivity
18 | QVQLVESGGGLVQAGGSLRLSCAASGSIFTTYAMGWYRQAPGKERELVAAISRAGDTTYADSVKGRFTISRDNAKNTVYLQMNSLKPEDTAVYYCADYDYWGQGTQVTVSS | low polyreactivity
19 | QVQLVESAGGLVQAGGRLRVSCAASGFIFLYYPMGWYRKAPGKEREFVAAISWSDGNTYYADSVKGRFTISRDTAKNTDYLQMNSLKREDTAVYYCNARDADAWASGYDYWGQGTQLTVSS | low polyreactivity
20 | QVQHVESGGGLVQAGGSLRLSCAASGFIFPNNAMGWYLQAPGKERELVARISYGGGDTHYADSVKGRFTISRDNAKNTVSLQMNSLKPEDTAVYYCAVKVGQDDYWGQGTQVTVSS | low polyreactivity
21 | QVQLVESGGGLVQAGGSLRLSCADSGITFYIYAMGWYRQAPGKERELVATISWSDGRTYYADSVKGRFTISRDNAKNTVYLQMNRLKPEDTAVYYCAADWWYYQFDYEYWGQGTQVTVSS | low polyreactivity
22 | QVQLVESGGGLVQAGGSLRISCAASGFIFTRYVMGWYSQAPGKERELVAGISTRGARTYYADSVKGRFTISRDNAKNTVYLQMNSLKPEDTAVYYCAKDYYKHYYWGQGTQVTVSS | high polyreactivity

Row | Sequence | polyreactivity (PSR sort gate)
23 | QVQLVESGGGLVQAGGSLRLSCAASGSTFNKYTMGWYRQAPGKERELVAAISSIGGSTYYADSVKGRFTISRDNAKNTVYLQMNSLKPEDTAVYYCAAPYPIGHDWGQGTQVTVSS | low polyreactivity
24 | QVHLVESGGGLVQAGGSLRLSCAASGSTFYYNAIGWYRQAPGKERELVARISRSGGSTYADSVKGRFTISRDKAKNTFYLQMNSLKPEDTAVYYCNADAYGTPEFTSYAVRYDYWGQGTQVTVSS | low polyreactivity
25 | QVQLVESGGGLFQAGGSLRLSCAASGSTSIYNAMGWYRQAPGKERELVAAIDVRGGGTYADSVKGRFTISRDNAKNTVYLQMNSMKPEDTAVYYCNADYARYPNGWFRIVGSGYWGQGTQVTVSS | low polyreactivity
26 | QVQLVESGGGLVQAGGSLRLSCAASGSIFRVYAMGWYRQAPGKERELVAAITNGGNTNYADSVKGRFTISRDNAKNTVYLQMNSLKPEDTAVYYCAATLHRYWYRLYYYWGQGTQVTVSS | high polyreactivity
27 | QVQLVESGGGLVQAGGSLRLSCAASGSTFRVNAMGWYRQAPGKERELVAAIRSSGGTTYYADSVQGRFTISRDNAKNTVYLQMNSLKPEDTAVYYCAAEGYRSWRGLRSRYYYWGQGTQVTVSS | high polyreactivity
28 | QVQLVESGGGLVQAGGSLRLSCAASGFTFEKNAMGWYRQAPGKERELVAAISRGGSTYADSVKGRFTISRDNAKNTVYLQMNSLKPEDTAVYYCAADTVYIFSSAINGEFGYWGQGTQVTVSS | low polyreactivity
29 | QVQLVESGGGLVQAGGSLRLSCAASGRIFKINAMGWSRQAPGKERDLVATISYSAGRTYYADSEKGRFTISRDSAKNTVYLQMNSLKPEDTAVYYCAARISSYWPYSLLDYWGQGTQVTVSS | high polyreactivity
30 | QVQLVESGGGLVQAGGSLRLSCAASGSTFSTYAMGWYRQAPGKERELVARITRSDTGTYYADSVKGRFTISRDNAKNTVYLQMNSLKPEDTAVYYCAADGWYDDSGWYYGYDYWGQGTQVTVSS | low polyreactivity
31 | QVQLVESGGGLVQAGGTLRLSCAPSARTFDRNAMGWYRQAPGKERELVASISWVGTSTYYADSVKGRFTISRDNAKNTVYLQMNSLKPDDSAVYYCAARRVKYISLDYWGQGTQVTVSS | low polyreactivity
32 | QVHLVESGGGLVQAGGSLRLSCAASGSTFVNYTMGWYIQAPGKERELVAITIGAGRTYYADSVKGRFTISRDNAKNTVYLPMNSLKPEDTAVYYCAVRLYANSGRFDYWGQGTQVTVSS | low polyreactivity
33 | QVQLVESGGGLVQAGGSLRLSCAASGITFTYYVMGWYRQAPGKERELVAAISSGGRTYYADSVKGRFTISRDNAKNTVYLEMNSLKPEDTAVYYCNADQYLRYFGRYYRSGEYWGQGTQVTVSS | high polyreactivity
34 | QVQLVESGGGLVQAGGSLRLSCAASGSIFVYNVMGWYRQAPGKERELVAAINYSGVSTYYADSVKGRFTISRDNAKNTVYLQMNSLKPEDTAVYYCAAEYEFGHSSTPMDYWGQGTQVTVSS | high polyreactivity
35 | QVQLVDSVGGLVKAGCSLRLSCAASGSTLPVNAKGCYRQAPGKERELVAAINRDGSTIYADSVKRPFTISRDIAKNTVYLKMNRLKPEDTAVYYCAADGFGYPGKRYDFWGQGTQVTVSS | low polyreactivity
36 | QVQLVESGGGLVQAGGSLRLSCAASGNTFDSYVMGWYRQAPGKERELVAAISYRGGSTYYADSVKGRFTISRDNAKNTVYLQMNSLKPEDSAVYFCAADYFYYVYSYWYDSWGQGTQVTVSS | high polyreactivity
37 | QVQLVESWGGLVQAGGSLRLSCAASGSIFDYNAMGWYRQAPGKERELVAAISSGGSTNYADSVKGRFTISRDNAKNTVYLQMNSLKPEDTAVYYCNTGLYWLGYWPDDYWGQGTQVTVSS | low polyreactivity
38 | QVQLVESRVGLVQAGGSLRLSCAASGITFYGYAMGWYRQAPGKERELVAAITSGGSTYYADTVKGRFTISRDNAKNTVYFQMNSLKPEDTAVYYCAAYLRRAYVHSYERYYWGQGTQVTVSS | low polyreactivity
39 | QVQLVESGGGLVQAGGSLRLSCAASGRIFYGYAMGWYRQAPGKERELVAAIRWYVGNTYYADSVKGRFTISRDNAKNTVYLQMNSLKPEDTAVYYCNARTEYASSRYYYWGQGTQVTVSS | high polyreactivity
40 | QVQLVESGGGLVQAGGSLRLSCAASGSTFSLYALGWYRQAPGKERELVAAITRGGNTYYADSVKGRFTISRDNAKNTVYLQMNSLKPEDTAVYYCNAVFPKTRSYAYGYWGQGTQVTVSS | high polyreactivity
41 | QVEHVESGGGLVQAGGSLRLSCAASGGTFSHNDMGWYRQAPGKERELVPSINSGGSTNYADSVKGRFTISRDNAKNTVDLQMNSLKPEDNAVYYCAADVEGWTVESDVYRVGYDYWGQCTQVTVSS | low polyreactivity
42 | QVQLVESGGGLVQAGGSLRLSCAASGITLTKNAMGWYRQAPGKERELVAGITRGSRTNYADSVKGRFTISRDNAKNTVYLQMNSLKPEDTAVYYCAASYWPYRGPVGGSKMYYWGQGTQVTVSS | high polyreactivity
43 | QVQLVESGGGLVQAGGSLRLSCAASGGTFGYNVMGWYRQAPGKERELVAAISYSVGGTYYADSVKGRFTISRDNAKNTVYLQMNSLKPEDTEVYYCAATGRRRTYSEYEYWGQGTQVTVSS | high polyreactivity
